Like-named read-outs stand apart in the source and are kept apart here.
Key:
[1] = biological target: T1, HCV proteins (Hepatitis C virus genotype 1b, UniProt Q9WMX2); experiment: Validation by Y2H pairwise matrices; assay type: binding;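 also: yeast two-hybrid pairwise tests of interactions first found in Y2H screens of HCV bait proteins against human cDNA libraries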
T1 construct: expressed in transfected cells

[2] = biological target: T2, HCV ORFs (Gal4-DB fusions) (Hepatitis C virus genotype 1b, UniProt Q9WMX2); assay type: binding, HCV genotype 1b, isolate con1; conditions: human protein as prey
T2 construct: expressed in transfected cells; host or cells: Saccharomyces cerevisiae MAV203 (IMAP1) / AH109 (IMAP2)

[3] = test system: HCV ORFs (Gal4-DB fusions); assay type: binding, HCV genotype 1b, isolate con1; conditions: human protein listed by gene symbol; the value names the HCV protein it interacts with
[4] = validation of interaction with HCV protein CORE
[5] = validation of interaction with HCV protein NS3
[6] = interaction with HCV protein NS5B
[7] = validation of interaction with HCV protein E2
[8] = validation of interaction with HCV protein NS2
[9] = validation of interaction with HCV protein NS4A
[10] = validation of interaction with HCV protein E1
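For IMAP Y2H IMAP1 (number of IST) in this document: yeast two-hybrid screens using HCV genotype 1b proteins fused to Gal4-DB as baits against prey cDNA libraries from human spleen and foetal brain, IMAP1 via transformation and IMAP2 via mating.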
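For IMAP Y2H IMAP2 (number of IST) in this document: yeast two-hybrid screens using HCV genotype 1b proteins fused to Gal4-DB as baits against prey cDNA libraries from human spleen and foetal brain, IMAP1 via transformation and IMAP2 via mating.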
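For Interaction with viral protein in this document: yeast two-hybrid screens using HCV genotype 1b proteins fused to Gal4-DB as baits against prey cDNA libraries from human spleen and foetal brain, IMAP1 via transformation and IMAP2 via mating.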

Row | Substance | Interaction with viral protein [3] | Y2H matrices [1, 5] | IMAP Y2H IMAP1 (number of IST) ([2]; HCV protein NS3 as bait) | other results
1 | AGRN | CORE | – | – | Y2H matrices [1, 4]: +; IMAP Y2H IMAP1 (number of IST) ([2]; HCV protein CORE as bait): 1
2 | ANKRD12 | NS3 | + | 1 | –
3 | APOA1 | NS3/4A and NS4B and NS2 and NS3 | – | – | –
4 | ARNT | NS3 | + | 1 | –
5 | ASXL1 | NS5A and NS3 | + | 1 | –
6 | AXIN1 | NS5A | – | – | IMAP Y2H IMAP2 (number of IST) ([2]; HCV protein NS5A as bait): 1
7 | BZRAP1 | NS3 | + | 1 | –
8 | CADPS | NS5A | – | – | IMAP Y2H IMAP2 (number of IST) ([2]; HCV protein NS5A as bait): 1
9 | CADPS2 | NS5A | – | – | IMAP Y2H IMAP2 (number of IST) ([2]; HCV protein NS5A as bait): 1
10 | CELSR2 | NS3 | + | 1 | –
11 | CEP63 | NS5A | – | – | IMAP Y2H IMAP2 (number of IST) ([2]; HCV protein NS5A as bait): 1
12 | CEP152 | NS3 | + | 1 | –
13 | CEP192 | NS3 | + | 1 | –
14 | CEP250 | NS5A | – | – | IMAP Y2H IMAP2 (number of IST) ([2]; HCV protein NS5A as bait): 15; IMAP Y2H IMAP2 (number of IST) ([2]; HCV protein NS5B as bait): 1
15 | CFP | NS3 | + | 4 | –
16 | COL4A2 | CORE | – | – | Y2H matrices [1, 4]: +; IMAP Y2H IMAP1 (number of IST) ([2]; HCV protein CORE as bait): 1
17 | CSNK2B | NS3 | + | 3 | –
18 | DOCK7 | NS3 | – | – | IMAP Y2H IMAP2 (number of IST) ([2]; HCV protein NS3 as bait): 2
19 | FBN3 | NS3 | + | 2 | –
20 | FHL2 | NS5A | – | – | IMAP Y2H IMAP2 (number of IST) ([2]; HCV protein NS5A as bait): 1
21 | FLAD1 | NS3 | + | 1 | –
22 | GAA | NS3 | + | 2 | –
23 | GAPDH | CORE | – | – | Y2H matrices [1, 4]: +; IMAP Y2H IMAP1 (number of IST) ([2]; HCV protein CORE as bait): 1
24 | GFAP | NS3 | + | 43 | –
25 | GON4L | NS3 | + | 1 | –
26 | HIVEP2 | NS3 and CORE | + | 3 | IMAP Y2H IMAP2 (number of IST) ([2]; HCV protein CORE as bait): 2; IMAP Y2H IMAP2 (number of IST) ([2]; HCV protein NS3 as bait): 5
27 | HNRPK | – | – | – | IMAP Y2H IMAP2 (number of IST) ([2]; HCV protein CORE as bait): 14; IMAP Y2H IMAP2 (number of IST) ([2]; HCV protein NS3 as bait): 1

Row | Substance | Interaction with viral protein [3] | Y2H matrices [1, 5] | IMAP Y2H IMAP1 (number of IST) ([2]; HCV protein NS3 as bait) | other results
28 | HOXD8 | – | – | – | Y2H matrices [1, 6]: +; Y2H matrices [1, 4]: +; Y2H matrices [1, 7]: +; Y2H matrices [1, 8]: +; Y2H matrices [1, 9]: +; IMAP Y2H IMAP1 (number of IST) ([2]; HCV protein CORE as bait): 1; IMAP Y2H IMAP1 (number of IST) ([2]; HCV protein E2 as bait): 1; IMAP Y2H IMAP1 (number of IST) ([2]; HCV protein NS2 as bait): 1; IMAP Y2H IMAP1 (number of IST) ([2]; HCV protein NS4A as bait): 1; IMAP Y2H IMAP1 (number of IST) ([2]; HCV protein NS5B as bait): 1
29 | ITGB1 | – | – | – | Y2H matrices [1, 7]: +; IMAP Y2H IMAP1 (number of IST) ([2]; HCV protein E2 as bait): 1
30 | ITGB4 | NS3 | + | 7 | –
31 | JAG2 | NS3 | + | 1 | –
32 | JUN | – | + | 8 | Y2H matrices [1, 10]: +; IMAP Y2H IMAP1 (number of IST) ([2]; HCV protein E1 as bait): 1
33 | KHDRBS1 | NS3 | + | 4 | –
34 | KIAA1549 | NS3 | + | 1 | –
35 | LAMA5 | NS3 | + | 1 | –
36 | LAMB2 | NS3 | + | 1 | –
37 | LAMC3 | NS3 | + | 1 | –
38 | LRRC7 | NS3 | – | – | IMAP Y2H IMAP2 (number of IST) ([2]; HCV protein NS3 as bait): 6
39 | LTBP4 | NS3 and CORE | + | 2 | Y2H matrices [1, 4]: +; IMAP Y2H IMAP1 (number of IST) ([2]; HCV protein CORE as bait): 4
40 | MAPK7 | NS3 | + | 4 | –
41 | MEGF6 | CORE | – | – | Y2H matrices [1, 4]: +; IMAP Y2H IMAP1 (number of IST) ([2]; HCV protein CORE as bait): 1
42 | MEGF8 | NS3 | + | 2 | –
43 | MLLT4 | NS3 | + | 2 | –
44 | MVP | NS3 | + | 1 | –
45 | NCAN | NS3 | + | 1 | –
46 | NDC80 | NS3 | – | – | IMAP Y2H IMAP2 (number of IST) ([2]; HCV protein NS3 as bait): 1
47 | NELL2 | NS3 | + | 11 | –
48 | NOTCH1 | NS3 | + | 2 | –
49 | NR4A1 | – | – | – | Y2H matrices [1, 6]: +; Y2H matrices [1, 4]: +; Y2H matrices [1, 10]: +; Y2H matrices [1, 7]: +; Y2H matrices [1, 8]: +; Y2H matrices [1, 9]: +; IMAP Y2H IMAP1 (number of IST) ([2]; HCV protein CORE as bait): 31; IMAP Y2H IMAP1 (number of IST) ([2]; HCV protein E1 as bait): 14; IMAP Y2H IMAP1 (number of IST) ([2]; HCV protein E2 as bait): 6; IMAP Y2H IMAP1 (number of IST) ([2]; HCV protein NS2 as bait): 5; IMAP Y2H IMAP1 (number of IST) ([2]; HCV protein NS4A as bait): 3; IMAP Y2H IMAP1 (number of IST) ([2]; HCV protein NS5B as bait): 8
50 | OBSCN | NS3 | – | 1 | –
51 | PARP4 | NS3 | + | 8 | –
52 | PDE4DIP | NS3 | + | 3 | –
53 | PSMA6 | – | – | – | Y2H matrices [1, 7]: +; IMAP Y2H IMAP1 (number of IST) ([2]; HCV protein E2 as bait): 1
54 | PSME3 | NS3 | + | 10 | –

Row | Substance | Interaction with viral protein [3] | Y2H matrices [1, 5] | IMAP Y2H IMAP1 (number of IST) ([2]; HCV protein NS3 as bait) | other results
55 | RGNEF | NS3 | + | 1 | –
56 | RICS | NS3 | + | 3 | IMAP Y2H IMAP2 (number of IST) ([2]; HCV protein NS3 as bait): 1
57 | RINT1 | NS3 | + | 1 | –
58 | RNF31 | NS3 and CORE | + | 1 | Y2H matrices [1, 4]: +; IMAP Y2H IMAP1 (number of IST) ([2]; HCV protein CORE as bait): 1
59 | ROGDI | NS3 | – | – | IMAP Y2H IMAP2 (number of IST) ([2]; HCV protein NS3 as bait): 1
60 | RUSC2 | NS3 | + | 21 | IMAP Y2H IMAP2 (number of IST) ([2]; HCV protein NS3 as bait): 1
61 | SBF1 | NS3 | + | 1 | –
62 | SETD2 | – | – | – | Y2H matrices [1, 6]: +; Y2H matrices [1, 4]: +; Y2H matrices [1, 10]: +; Y2H matrices [1, 7]: +; Y2H matrices [1, 8]: +; IMAP Y2H IMAP1 (number of IST) ([2]; HCV protein CORE as bait): 5; IMAP Y2H IMAP1 (number of IST) ([2]; HCV protein E1 as bait): 2; IMAP Y2H IMAP1 (number of IST) ([2]; HCV protein E2 as bait): 1; IMAP Y2H IMAP1 (number of IST) ([2]; HCV protein NS2 as bait): 1; IMAP Y2H IMAP1 (number of IST) ([2]; HCV protein NS5B as bait): 3
63 | SHARPIN | NS5A | – | – | IMAP Y2H IMAP2 (number of IST) ([2]; HCV protein NS5A as bait): 2; IMAP Y2H IMAP2 (number of IST) ([2]; HCV protein NS5B as bait): 1
64 | SLIT1 | NS3 | + | 7 | –
65 | SMYD3 | NS5A | – | – | Y2H matrices ([1]; interaction with HCV protein NS5A): +; IMAP Y2H IMAP1 (number of IST) ([2]; HCV protein NS5A as bait): 1
66 | STAB1 | NS3 | + | 4 | –
67 | STAT3 | NS3 | + | 1 | –
68 | SVEP1 | NS3 | + | 3 | –
69 | SYNE1 | NS3 | – | – | IMAP Y2H IMAP2 (number of IST) ([2]; HCV protein NS3 as bait): 4
70 | TAF1 | NS3 | + | 2 | –
71 | TGFB1I1 | NS3 | + | 1 | –
72 | THBS1 | NS5A | – | – | IMAP Y2H IMAP2 (number of IST) ([2]; HCV protein NS5A as bait): 7
73 | TMSB4X | – | – | – | Y2H matrices [1, 10]: +; IMAP Y2H IMAP1 (number of IST) ([2]; HCV protein E1 as bait): 1
74 | TRIM27 | NS3 and NS2 | + | 1 | IMAP Y2H IMAP2 (number of IST) ([2]; HCV protein NS2 as bait): 1
75 | TRIO | NS3 | + | 1 | IMAP Y2H IMAP2 (number of IST) ([2]; HCV protein NS3 as bait): 1
76 | TRIOBP | – | – | – | IMAP Y2H IMAP2 (number of IST) ([2]; HCV protein NS5A as bait): 2
77 | TRIP11 | NS3 | + | 1 | –
78 | TUBB2C | – | – | – | Y2H matrices [1, 6]: +; IMAP Y2H IMAP1 (number of IST) ([2]; HCV protein NS5B as bait): 1
79 | UBQLN4 | – | – | – | Y2H matrices ([1]; interaction with HCV protein p7): +; IMAP Y2H IMAP1 (number of IST) ([2]; HCV protein p7 as bait): 3
